From PMC8259991, “Transgenerational inheritance of centromere identity requires the CENP-A N-terminal tail in the C. elegans maternal germ line” (PLoS Biology, 2021)

Biological target: T1, KNL-2 central region (aa 269-470), recombinant (C. elegans, UniProt O44548 269-470)
T1 construct: The His9-MBP tag was cut off with TEV protease after mixing and before the pull-down; also called KNL-2 central fragment; source: E. coli BL21-Star, purified (MBP FF crude column, desalting); not shown: His9-MBP, N-terminal, cleaved
T1 sequence (looked up): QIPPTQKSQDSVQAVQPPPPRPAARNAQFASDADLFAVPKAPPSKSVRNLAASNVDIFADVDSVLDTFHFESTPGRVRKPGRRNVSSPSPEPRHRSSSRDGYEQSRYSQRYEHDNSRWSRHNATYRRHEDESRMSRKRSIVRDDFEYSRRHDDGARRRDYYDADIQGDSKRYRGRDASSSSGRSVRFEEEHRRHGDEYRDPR
Assay: pull-down; recombinant proteins mixed in equimolar amounts, 1 h at RT, TEV digestion 30 min at RT, glutathione magnetic agarose beads 1 h at RT; SDS-PAGE with Coomassie stain
Details: both partners purified

B1: CENP-A N-terminal tail (aa 1-179) fused to GST (domain or fragment, C. elegans, UniProt P34470 1-179, looked up)
chain: MADDTPIIEEIAEQNESVTRIMQRLKHDMQRVTSVPGFNTSAAGVNDLIDILNQYKKELEDDAANDYTEAHIHKIRLVTGKRNQYVLKLKQAEDEYHARKEQARRRASSMDFTVGRNSTNLVDYSHGRHHMPSYRRHDSSDEENYSMDGTNGDGNRAGPSNPDRGNRTGPSSSDRVRMR
notes: CENP-A homolog HCP-3, C. elegans, residues 1-179 (N-terminal tail); The His9-MBP tag was cut off with TEV protease after the two proteins had been mixed and before the pull-down on glutathione beads; also called His9-MBP-TEV-CENP-A^1-179-GST; GST::CENP-A N-terminal tail; source: E. coli BL21-Star, purified (Ni-charged chelating HiTrap column, desalting); not shown: His9-MBP, N-terminal, cleaved; …
- binding result: binds
